Experimental data published in US20240270821A1, “GIP/GLP1/GCG TRI-RECEPTOR AGONISTS AND USES THEREOF” (priority 2023, published 2024).
Where a chain is given by its changes, count along the chain named. Starred links: 1 amine or outer side, 2 acyl side, 3 side chain; linkers in the order of their positions; H or OH if unused. Non-standard residues stand in square brackets, D forms with d. Groups on a side chain read outwards from the residue. No end group written: not given here. *: point of attachment. C20 diacid = O=C(O)CCCCCCCCCCCCCCCCCCC(=O)*; γGlu = O=C(O)[C@H](CCC(=O)[*:2])N[*:1]; NMeY = CN[C@@H](Cc1ccc(O)cc1)C(=O)O; αMeF = C[C@](N)(Cc1ccccc1)C(=O)O; αMeL = CC(C)C[C@](C)(N)C(=O)O; AEEA = NCCOCCOCC(=O)O; Aib = CC(C)(N)C(=O)O

T1: human GIP receptor (human) (UniProt P48546)
T1 sequence (looked up): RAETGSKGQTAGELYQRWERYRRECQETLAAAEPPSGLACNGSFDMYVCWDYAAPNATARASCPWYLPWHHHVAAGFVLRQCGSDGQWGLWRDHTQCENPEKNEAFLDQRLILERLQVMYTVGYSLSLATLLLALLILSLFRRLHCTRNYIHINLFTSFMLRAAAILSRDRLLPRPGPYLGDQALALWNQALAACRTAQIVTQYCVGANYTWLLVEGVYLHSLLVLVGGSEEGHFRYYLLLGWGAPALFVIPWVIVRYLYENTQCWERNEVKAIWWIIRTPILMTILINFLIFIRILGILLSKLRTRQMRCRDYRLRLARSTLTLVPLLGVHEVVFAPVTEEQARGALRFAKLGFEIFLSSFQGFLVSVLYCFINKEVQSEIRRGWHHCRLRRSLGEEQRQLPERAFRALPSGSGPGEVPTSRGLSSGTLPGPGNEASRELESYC

B1: Example 281 (peptide)
chain: YXQGTFTSDXSKXLDKKAQXAFIEYLIEXGESSGEPPPSGE
modifications: synthetic construct; SITE 2: note = 2-Aminoisobutyric Acid; SITE 10: note = 3-(4-Pyridyl)-L-alanine; SITE 13: note = alpha-methyl-leucine; SITE 17: note = Lysine is chemically modified through conjugation of the epsilon-amino group of the Lysine side chain with (2-[2-(2-Amino-ethoxy)-ethoxy]-acetyl)
B2: Example 287 (peptide)
chain: B1 chain with E28A, E41S
modifications: synthetic construct; SITE 2: note = 2-Aminoisobutyric Acid; SITE 10: note = 3-(4-Pyridyl)-L-alanine; SITE 13: note = alpha-methyl-leucine; SITE 17: note = Lysine is chemically modified through conjugation of the epsilon-amino group of the Lysine side chain with (2-[2-(2-Amino-ethoxy)-ethoxy]-acetyl)
B3: Example 286 (peptide)
chain: B1 chain with E28A
modifications: synthetic construct; SITE 2: note = 2-Aminoisobutyric Acid; SITE 10: note = 3-(4-Pyridyl)-L-alanine; SITE 13: note = alpha-methyl-leucine; SITE 17: note = Lysine is chemically modified through conjugation of the epsilon-amino group of the Lysine side chain with (2-[2-(2-Amino-ethoxy)-ethoxy]-acetyl)

target: hGLP-1R (Homo sapiens, UniProt P43220); assay: cell-based or functional assay
Sequence (P43220 24-463): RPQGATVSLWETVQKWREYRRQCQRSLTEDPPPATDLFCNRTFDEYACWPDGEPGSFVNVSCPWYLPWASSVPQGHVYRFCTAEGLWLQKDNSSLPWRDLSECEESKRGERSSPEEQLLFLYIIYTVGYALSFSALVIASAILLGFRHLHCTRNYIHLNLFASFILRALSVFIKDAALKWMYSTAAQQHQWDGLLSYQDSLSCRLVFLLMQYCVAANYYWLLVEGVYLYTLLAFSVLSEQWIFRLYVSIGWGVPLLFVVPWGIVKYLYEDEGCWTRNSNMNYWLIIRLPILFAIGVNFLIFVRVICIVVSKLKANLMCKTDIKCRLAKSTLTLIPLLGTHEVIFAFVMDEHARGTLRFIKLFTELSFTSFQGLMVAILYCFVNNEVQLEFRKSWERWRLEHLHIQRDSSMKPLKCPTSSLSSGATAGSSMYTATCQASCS

Row | Relative cAMP EC50 | cAMP Rel EC50 (1% HSA) | cAMP Rel EC50 (in the presence of 1% HSA) | Binder
1 | 0.947 nM | 119 nM |  | Y[Aib]QGTFTSDYSI[αMeL]LDKQAAK([AEEA-AEEA-γGlu-C20 diacid])QFIEWLIEGGPSSGEPPPGAE-NH2 [Example 319]
2 | 0.304 nM | 135 nM |  | Y[Aib]QGTFTSDYSI[αMeL]LDKK([AEEA-γGlu-C20 diacid])AQRAFIEYLLEGGPSSGEPPPSG-NH2 (N-terminus assumed; SMILES CC[C@H](C)[C@H](NC(=O)[C@H](Cc1ccccc1)NC(=O)[C@H](C)NC(=O)[C@H](CCCNC(=N)N)NC(=O)[C@H](CCC(N)=O)NC(=O)[C@H](C)NC(=O)[C@H](CCCCNC(=O)COCCOCCNC(=O)CC[C@H](NC(=O)CCCCCCCCCCCCCCCCCCC(=O)O)C(=O)O)NC(=O)[C@H](CCCCN)NC(=O)[C@H](CC(=O)O)NC(=O)[C@H](CC(C)C)NC(=O)[C@](C)(CC(C)C)NC(=O)[C@@H](NC(=O)[C@H](CO)NC(=O)[C@H](Cc1ccc(O)cc1)NC(=O)[C@H](CC(=O)O)NC(=O)[C@H](CO)NC(=O)[C@@H](NC(=O)[C@H](Cc1ccccc1)NC(=O)[C@@H](NC(=O)CNC(=O)[C@H](CCC(N)=O)NC(=O)C(C)(C)NC(=O)[C@@H](N)Cc1ccc(O)cc1)[C@@H](C)O)[C@@H](C)O)[C@@H](C)CC)C(=O)N[C@@H](CCC(=O)O)C(=O)N[C@@H](Cc1ccc(O)cc1)C(=O)N[C@@H](CC(C)C)C(=O)N[C@@H](CC(C)C)C(=O)N[C@@H](CCC(=O)O)C(=O)NCC(=O)NCC(=O)N1CCC[C@H]1C(=O)N[C@@H](CO)C(=O)N[C@@H](CO)C(=O)NCC(=O)N[C@@H](CCC(=O)O)C(=O)N1CCC[C@H]1C(=O)N1CCC[C@H]1C(=O)N1CCC[C@H]1C(=O)N[C@@H](CO)C(=O)NCC(N)=O) [Example 313]
3 | 0.963 nM | 380 nM |  | [NMeY][Aib]QGT[αMeF]TSDYSILLDKIAAKAFIEYLIEGGPSSGEPPPSEG-NH2 (not fully specified (residue 20)) [Example 299]
4 | 1.6 nM |  | 295 nM | B1
5 | 4.25 nM |  | 562 nM | B2
6 | 3.45 nM |  | 925 nM | B3

target: T1, human GIP receptor (human); assay: cell-based or functional assay

Row | Relative cAMP EC50 | cAMP Rel EC50 (1% HSA) | cAMP Rel EC50 (in the presence of 1% HSA) | Binder
7 | 0.485 nM | 60.1 nM |  | Y[Aib]QGTFTSDYSI[αMeL]LDKQAAK([AEEA-AEEA-γGlu-C20 diacid])QFIEWLIEGGPSSGEPPPGAE-NH2 [Example 319]
8 | 0.49 nM | 86.4 nM |  | Y[Aib]QGTFTSDYSI[αMeL]LDKK([AEEA-γGlu-C20 diacid])AQRAFIEYLLEGGPSSGEPPPSG-NH2 (N-terminus assumed; SMILES CC[C@H](C)[C@H](NC(=O)[C@H](Cc1ccccc1)NC(=O)[C@H](C)NC(=O)[C@H](CCCNC(=N)N)NC(=O)[C@H](CCC(N)=O)NC(=O)[C@H](C)NC(=O)[C@H](CCCCNC(=O)COCCOCCNC(=O)CC[C@H](NC(=O)CCCCCCCCCCCCCCCCCCC(=O)O)C(=O)O)NC(=O)[C@H](CCCCN)NC(=O)[C@H](CC(=O)O)NC(=O)[C@H](CC(C)C)NC(=O)[C@](C)(CC(C)C)NC(=O)[C@@H](NC(=O)[C@H](CO)NC(=O)[C@H](Cc1ccc(O)cc1)NC(=O)[C@H](CC(=O)O)NC(=O)[C@H](CO)NC(=O)[C@@H](NC(=O)[C@H](Cc1ccccc1)NC(=O)[C@@H](NC(=O)CNC(=O)[C@H](CCC(N)=O)NC(=O)C(C)(C)NC(=O)[C@@H](N)Cc1ccc(O)cc1)[C@@H](C)O)[C@@H](C)O)[C@@H](C)CC)C(=O)N[C@@H](CCC(=O)O)C(=O)N[C@@H](Cc1ccc(O)cc1)C(=O)N[C@@H](CC(C)C)C(=O)N[C@@H](CC(C)C)C(=O)N[C@@H](CCC(=O)O)C(=O)NCC(=O)NCC(=O)N1CCC[C@H]1C(=O)N[C@@H](CO)C(=O)N[C@@H](CO)C(=O)NCC(=O)N[C@@H](CCC(=O)O)C(=O)N1CCC[C@H]1C(=O)N1CCC[C@H]1C(=O)N1CCC[C@H]1C(=O)N[C@@H](CO)C(=O)NCC(N)=O) [Example 313]
9 | 0.137 nM | 40.2 nM |  | [NMeY][Aib]QGT[αMeF]TSDYSILLDKIAAKAFIEYLIEGGPSSGEPPPSEG-NH2 (not fully specified (residue 20)) [Example 299]
10 | 0.154 nM |  | 25.8 nM | B1
11 | 0.0633 nM |  | 9.94 nM | B2
12 | 0.0845 nM |  | 11.5 nM | B3

target: human glucagon receptor (human) (UniProt P47871); assay: cell-based or functional assay
Sequence (P47871 26-477): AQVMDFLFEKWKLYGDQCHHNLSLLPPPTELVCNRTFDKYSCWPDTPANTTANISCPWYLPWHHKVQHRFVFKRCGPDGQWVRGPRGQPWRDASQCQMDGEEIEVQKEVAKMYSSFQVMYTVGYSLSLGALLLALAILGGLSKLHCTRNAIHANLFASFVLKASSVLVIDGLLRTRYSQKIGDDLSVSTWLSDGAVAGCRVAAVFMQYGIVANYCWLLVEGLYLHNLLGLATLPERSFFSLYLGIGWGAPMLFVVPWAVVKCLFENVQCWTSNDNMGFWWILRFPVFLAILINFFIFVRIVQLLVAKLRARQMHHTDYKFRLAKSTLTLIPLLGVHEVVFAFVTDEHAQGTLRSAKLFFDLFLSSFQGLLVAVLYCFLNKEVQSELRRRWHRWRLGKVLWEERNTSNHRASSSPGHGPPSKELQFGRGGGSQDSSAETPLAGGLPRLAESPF

Row | Relative cAMP EC50 | cAMP Rel EC50 (1% HSA) | cAMP Rel EC50 (in the presence of 1% HSA) | Binder
13 | 4.81 nM | 1650 nM |  | Y[Aib]QGTFTSDYSI[αMeL]LDKQAAK([AEEA-AEEA-γGlu-C20 diacid])QFIEWLIEGGPSSGEPPPGAE-NH2 [Example 319]
14 | 4.11 nM | 3290 nM |  | Y[Aib]QGTFTSDYSI[αMeL]LDKK([AEEA-γGlu-C20 diacid])AQRAFIEYLLEGGPSSGEPPPSG-NH2 (N-terminus assumed; SMILES CC[C@H](C)[C@H](NC(=O)[C@H](Cc1ccccc1)NC(=O)[C@H](C)NC(=O)[C@H](CCCNC(=N)N)NC(=O)[C@H](CCC(N)=O)NC(=O)[C@H](C)NC(=O)[C@H](CCCCNC(=O)COCCOCCNC(=O)CC[C@H](NC(=O)CCCCCCCCCCCCCCCCCCC(=O)O)C(=O)O)NC(=O)[C@H](CCCCN)NC(=O)[C@H](CC(=O)O)NC(=O)[C@H](CC(C)C)NC(=O)[C@](C)(CC(C)C)NC(=O)[C@@H](NC(=O)[C@H](CO)NC(=O)[C@H](Cc1ccc(O)cc1)NC(=O)[C@H](CC(=O)O)NC(=O)[C@H](CO)NC(=O)[C@@H](NC(=O)[C@H](Cc1ccccc1)NC(=O)[C@@H](NC(=O)CNC(=O)[C@H](CCC(N)=O)NC(=O)C(C)(C)NC(=O)[C@@H](N)Cc1ccc(O)cc1)[C@@H](C)O)[C@@H](C)O)[C@@H](C)CC)C(=O)N[C@@H](CCC(=O)O)C(=O)N[C@@H](Cc1ccc(O)cc1)C(=O)N[C@@H](CC(C)C)C(=O)N[C@@H](CC(C)C)C(=O)N[C@@H](CCC(=O)O)C(=O)NCC(=O)NCC(=O)N1CCC[C@H]1C(=O)N[C@@H](CO)C(=O)N[C@@H](CO)C(=O)NCC(=O)N[C@@H](CCC(=O)O)C(=O)N1CCC[C@H]1C(=O)N1CCC[C@H]1C(=O)N1CCC[C@H]1C(=O)N[C@@H](CO)C(=O)NCC(N)=O) [Example 313]
15 | 2.54 nM | 1700 nM |  | [NMeY][Aib]QGT[αMeF]TSDYSILLDKIAAKAFIEYLIEGGPSSGEPPPSEG-NH2 (not fully specified (residue 20)) [Example 299]
16 | 13.7 nM |  | 1370 nM | B1
17 | 2.53 nM |  | 291 nM | B2
18 | 2.2 nM |  | 228 nM | B3
